Data set [1] concerns the target histone H3 tail H3 tail (Homo sapiens) (UniProt P68431). Particulars: cited from earlier work.
The target of data set [2] is Oregon Green 488-labeled BRPF1 PZP domain (UniProt P55201). As to the kind of experiment: FRET or BRET; HIFI-FRET titration; Atto647N-labeled mononucleosomes titrated against three concentrations of Oregon Green labeled PZP; 25 mM Tris 7.5, 200 mM NaCl, 0.01% NP40 and CHAPS; quadratic fit; apparent Kd.
The subject of data set [3] is BRPF1 PZP domain. As to the kind of experiment: HI-FI FRET. Particulars: 200 mM NaCl, HI-FI FRET: 25 mM Tris pH 7.5, 200 mM NaCl, 0.01% NP40 and CHAPS, EMSA: 25 mM Tris-HCl pH 7.5, 150 mM NaCl, 5 mM DTT, +/-10% glycerol, RT 30 min, NMR: 25 mM ….
In another data set the test system is LexA. Put plainly: FRET. Particulars: LexA titration; S1/2 of nucleosome unwrapping, 75 mM NaCl; HI-FI FRET: 25 mM Tris pH 7.5, 200 mM NaCl, 0.01% NP40 and CHAPS; EMSA: 25 mM Tris-HCl pH 7.5, 150 mM NaCl, 5 mM DTT, +/-10% glycerol, RT 30 min; NMR: 25 mM ….
For data set [4], the system named is BRPF1 PZP domain. As to the kind of experiment: FRET. Conditions: with LexA fixed at its S1/2 (2 uM); HI-FI FRET: 25 mM Tris pH 7.5, 200 mM NaCl, 0.01% NP40 and CHAPS; EMSA: 25 mM Tris-HCl pH 7.5, 150 mM NaCl, 5 mM DTT, +/-10% glycerol, RT 30 min; NMR: 25 mM ….
The target in data set [5] is NCP165, mononucleosome assembled with unlabeled Xenopus octamer on 165 bp 601 DNA (Xenopus). Put plainly: AUC; sedimentation velocity; unlabeled NCP165 incubated with increasing molar ratios of PZP overnight at 4°C; 20 mM Tris 7.5, 50 mM NaCl, 2 mM arginine; 20°C, 40 000 rpm; free components also run alone.
Data set [6] has as its target Atto647N-labeled NCP165 (Xenopus octamer labeled at H4E63C, 165 bp 601 DNA) (Xenopus). Put plainly: FRET or BRET; HIFI-FRET Job plot (continuous variation); Oregon Green 488-PZP donor and Atto647N-NCP165 acceptor; total concentration of reactants constant at 1 μM, 50 nM steps.

Bounds are passed on as bounds.

As for BRPF1 PZP PZP (from UniProt P55201), the Kd in data set [1] was 12 µM.

“Atto647N-labeled NCP165 (Xenopus octamer labeled at H4E63C, 165 bp 601 DNA) (complex)”: the Kd in data set [2] is 273 nM.

As for NCP147 (FRET), in the data set with BRPF1 PZP domain [3] (apparent, curve did not plateau), the Kd is more than 1000 nM.

Take “Atto647N-labeled NCP147 (Xenopus octamer labeled at H4E63C, 147 bp 601 DNA) (complex)”: in data set [2], the Kd was more than 1000 nM.

601L Cy3-Cy5 NCP with LexA site: the K half with LexA worked out at 2000 nM; in the data set on BRPF1 PZP domain [4], 4 µM.

With “BRPF1 PZP domain (amino acids 267–454) (from UniProt P55201 267-454) (domain or fragment)”, the stoichiometry N in data set [5] was 2.

Substance “Oregon Green 488-labeled BRPF1 PZP domain (from UniProt P55201 267-454) (domain or fragment)” yielded a stoichiometry N in data set [6] of 1.8.

Consider NCP165, for which the Kd in the data set with BRPF1 PZP domain [3] (apparent Kd) was 273 nM.

The values above are taken from article PMC4705663.
